Reference: US11732029B2, “Methods and compositions for the treatment of wounds” (The University of Chicago, priority 2017, dated 2023)
No end group written: not given here.

Assays:
[1] = test system: full-thickness back-skin wounds in db/db diabetic mice; assay: Retention of VEGF-A165 at the wound site; assay type: in vivo; conditions: db/db mouse; fibrin matrix with 200 ng VEGF-A165/wound; 3 days after treatment; vs without peptide
Experimental: Retention assays were performed as previously reported^1. Briefly, C57BLKS/J-m/Lepr db (db/db) mice ages 10 to 11 wks were used. Their backs were shaved and four full-thickness punch-biopsy wounds (6 mm in diameter) were created in each mouse. Directly after, fibrin matrices [80 μL total, fibrinogen (10 mg/mL), 2 U/mL human thrombin, 4 U/mL factor XIII, 5 mM calcium chloride, 2 μM α2PI1-8-α33043-3067, 200 ng of recombinant human VEGF-A165] were polymerized on the wounds. To avoid drying of the matrices, the wounds were covered with non-adhering dressing (Adaptic, Johnson & Johnson), and then with adhesive film dressing (Hydrofilm, Hartmann). After 3 or 6 days, mice were sacrificed. The wounds were punched again, in order to recover the fibrinous matrices. Moreover, the tissue surrounding the wounds (2 mm beyond the wound margin) was removed. The tissue was transferred in 0.9 mL of tissue T-PER Tissue Protein Extraction Reagent (Thermo Scientific) containing 1 mg/mL of collagenase IV (Sigma-Aldrich), and homogenized with a tissue homogenizer. […] Recombinant human VEGF-A165 remaining in the fibrinous matrix and in the tissue surrounding the wound were quantified by ELISA (DuoSet, R&D Systems), using 200 ng of recombinant human VEGF-A165 as 100%.

[2] = biological target: T1, CXCL-12α (Homo sapiens, UniProt P48061); assay: Laminin binding to recombinant GFs (ELISA); conditions: ELISA A450 nm; signals greater than 0.1 = binding
T1 construct: All GFs and chemokines were purchased in their mature forms; purchased PeproTech; host or cells: Escherichia coli
T1 sequence (P48061 22-89 limits assumed): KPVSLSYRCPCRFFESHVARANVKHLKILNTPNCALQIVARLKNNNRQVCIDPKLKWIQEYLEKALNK
Experimental: (§1) ELISA tests were performed as previously reported. In brief, ELISA plates (med-binding, Greiner Bio-One) were coated with 50 nM GFs at 37° C. for more than 2 hrs. After blocking with 2% BSA solution containing PBS and 0.05% Tween 20 (PBS-T), 10 nM recombinant human laminin isoforms (−111, −211, −332, −411, −421, −511, and −521) (>95% purity tested by SDS-PAGE, BioLamina) were added. Bound laminin was detected with rabbit anti-human laminin γ1 chain antibody (1:1000 dilution, Assay biotech) or rabbit anti-human laminin α3 chain antibody (1:1000 dilution, Assay biotech). After incubation with biotinylated anti-rabbit antibody for 60 min at room temperature (RT), HRP conjugated streptavidin (Jackson ImmunoResearch) was added. After 60 min of incubation at RT, 50 μL TMB substrate (Sigma-Aldrich) was added. The reactions were stopped by adding 25 μL of 2N H2SO4. Subsequently, the absorbance at 450 nm was measured with a reference of 570 nm.

[3] = biological target: T2, CXCL-11 (Homo sapiens, UniProt O14625); assay: Laminin binding to recombinant GFs (ELISA); conditions: ELISA A450 nm; signals greater than 0.1 = binding
T2 construct: All growth factors (GFs) and chemokines were purchased in their mature forms; purchased PeproTech; host or cells: Escherichia coli
T2 sequence (O14625 22-94): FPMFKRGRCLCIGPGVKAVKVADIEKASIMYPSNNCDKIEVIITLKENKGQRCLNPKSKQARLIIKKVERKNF
Experimental: as §1

[4] = biological target: T3, PlGF-2 (Homo sapiens, UniProt P49763); assay: Surface plasmon resonance, laminin against GF; parameters: All GFs and chemokines were purchased in their mature forms; purchased PeproTech; host or cells: Escherichia coli; conditions: SPR; laminin protein immobilized on chip, GF flowed; Langmuir binding kinetics
T3 sequence (P49763 19-170 isoform P49763-3 limits assumed): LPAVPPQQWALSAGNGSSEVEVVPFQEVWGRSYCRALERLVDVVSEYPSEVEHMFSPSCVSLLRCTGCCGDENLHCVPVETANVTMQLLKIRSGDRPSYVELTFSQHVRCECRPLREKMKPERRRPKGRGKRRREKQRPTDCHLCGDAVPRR
Experimental: (§2) SPR analysis was performed as described previously^2. In brief, measurements were made with a Biacore 3000 SPR system (GE Healthcare). Laminin-521 or laminin α32928-3150 was immobilized via amine coupling on a C1 chip (GE Healthcare) for ˜2000 or ˜1000 resonance units (RU), respectively, according to the manufacturer's instructions. VEGF-A165, PDGF-BB, or PlGF-2 was flowed at increasing concentrations in the running buffer at 20 μL/min. The sensor chip was regenerated with 50 mM NaOH for every cycle. Specific bindings of GFs to laminin were calculated by comparison to a non-functionalized channel used as a reference. Experimental results were fitted with Langmuir binding kinetics using BIAevaluation software (GE Healthcare).

[5] = biological target: T4, PDGF-BB (Homo sapiens, UniProt P01127); assay: Surface plasmon resonance, laminin against GF; conditions: SPR; laminin protein immobilized on chip, GF flowed; Langmuir binding kinetics
T4 construct: All growth factors (GFs) and chemokines were purchased in their mature forms; purchased PeproTech; host or cells: Escherichia coli
T4 sequence (P01127 82-190 limits assumed): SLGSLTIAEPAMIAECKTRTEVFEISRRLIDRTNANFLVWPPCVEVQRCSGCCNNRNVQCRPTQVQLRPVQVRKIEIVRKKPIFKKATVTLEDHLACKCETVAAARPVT
Experimental: as §2

[6] = biological target: T5, VEGF-A165 (Homo sapiens, UniProt P15692); assay: Surface plasmon resonance, laminin against GF; conditions: SPR; laminin protein immobilized on chip, GF flowed; Langmuir binding kinetics
T5 construct: All growth factors (GFs) and chemokines were purchased in their mature forms; purchased PeproTech; host or cells: Escherichia coli
T5 sequence (P15692 27-191 isoform P15692-4 limits assumed): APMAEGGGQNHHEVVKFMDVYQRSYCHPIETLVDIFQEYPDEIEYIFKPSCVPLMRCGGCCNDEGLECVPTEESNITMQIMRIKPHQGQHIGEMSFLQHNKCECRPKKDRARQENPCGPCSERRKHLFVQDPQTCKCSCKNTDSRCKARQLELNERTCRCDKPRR
Experimental: as §2

[7] = test system: GF binding to laminin; assay: Inhibition of laminin-GF binding by heparin (ELISA); conditions: heparin added in excess (10 μM); VEGF-A165, PlGF-2 or FGF-2
Experimental: ELISA plates (med-binding) were coated with 10 μg/mL laminin isoforms (−111, −211, −221, −411, −421, −511, and −521) in PBS for 2 hrs at 37° C. Then, wells were blocked with 2% BSA-containing PBS-T and further incubated with 1 μg/mL each of VEGF-A165, PlGF-2, or FGF-2 for 60 min at RT with 10 μM heparin. Next, the wells were incubated with biotinylated anti-VEGF, anti-PlGF, or anti-FGF-2 antibodies (R&D Systems). The antibodies were detected by streptavidin-HRP (R&D Systems).

[8] = biological target: vWF binding to the GFs (Homo sapiens, UniProt P04275); assay: Inhibition of vWF-GF binding by heparin (ELISA); conditions: excess (10 μM) heparin; VEGF-A165, PlGF-2 or FGF-2
Chain of vWF binding to the GFs (P04275 764-2813 limits assumed): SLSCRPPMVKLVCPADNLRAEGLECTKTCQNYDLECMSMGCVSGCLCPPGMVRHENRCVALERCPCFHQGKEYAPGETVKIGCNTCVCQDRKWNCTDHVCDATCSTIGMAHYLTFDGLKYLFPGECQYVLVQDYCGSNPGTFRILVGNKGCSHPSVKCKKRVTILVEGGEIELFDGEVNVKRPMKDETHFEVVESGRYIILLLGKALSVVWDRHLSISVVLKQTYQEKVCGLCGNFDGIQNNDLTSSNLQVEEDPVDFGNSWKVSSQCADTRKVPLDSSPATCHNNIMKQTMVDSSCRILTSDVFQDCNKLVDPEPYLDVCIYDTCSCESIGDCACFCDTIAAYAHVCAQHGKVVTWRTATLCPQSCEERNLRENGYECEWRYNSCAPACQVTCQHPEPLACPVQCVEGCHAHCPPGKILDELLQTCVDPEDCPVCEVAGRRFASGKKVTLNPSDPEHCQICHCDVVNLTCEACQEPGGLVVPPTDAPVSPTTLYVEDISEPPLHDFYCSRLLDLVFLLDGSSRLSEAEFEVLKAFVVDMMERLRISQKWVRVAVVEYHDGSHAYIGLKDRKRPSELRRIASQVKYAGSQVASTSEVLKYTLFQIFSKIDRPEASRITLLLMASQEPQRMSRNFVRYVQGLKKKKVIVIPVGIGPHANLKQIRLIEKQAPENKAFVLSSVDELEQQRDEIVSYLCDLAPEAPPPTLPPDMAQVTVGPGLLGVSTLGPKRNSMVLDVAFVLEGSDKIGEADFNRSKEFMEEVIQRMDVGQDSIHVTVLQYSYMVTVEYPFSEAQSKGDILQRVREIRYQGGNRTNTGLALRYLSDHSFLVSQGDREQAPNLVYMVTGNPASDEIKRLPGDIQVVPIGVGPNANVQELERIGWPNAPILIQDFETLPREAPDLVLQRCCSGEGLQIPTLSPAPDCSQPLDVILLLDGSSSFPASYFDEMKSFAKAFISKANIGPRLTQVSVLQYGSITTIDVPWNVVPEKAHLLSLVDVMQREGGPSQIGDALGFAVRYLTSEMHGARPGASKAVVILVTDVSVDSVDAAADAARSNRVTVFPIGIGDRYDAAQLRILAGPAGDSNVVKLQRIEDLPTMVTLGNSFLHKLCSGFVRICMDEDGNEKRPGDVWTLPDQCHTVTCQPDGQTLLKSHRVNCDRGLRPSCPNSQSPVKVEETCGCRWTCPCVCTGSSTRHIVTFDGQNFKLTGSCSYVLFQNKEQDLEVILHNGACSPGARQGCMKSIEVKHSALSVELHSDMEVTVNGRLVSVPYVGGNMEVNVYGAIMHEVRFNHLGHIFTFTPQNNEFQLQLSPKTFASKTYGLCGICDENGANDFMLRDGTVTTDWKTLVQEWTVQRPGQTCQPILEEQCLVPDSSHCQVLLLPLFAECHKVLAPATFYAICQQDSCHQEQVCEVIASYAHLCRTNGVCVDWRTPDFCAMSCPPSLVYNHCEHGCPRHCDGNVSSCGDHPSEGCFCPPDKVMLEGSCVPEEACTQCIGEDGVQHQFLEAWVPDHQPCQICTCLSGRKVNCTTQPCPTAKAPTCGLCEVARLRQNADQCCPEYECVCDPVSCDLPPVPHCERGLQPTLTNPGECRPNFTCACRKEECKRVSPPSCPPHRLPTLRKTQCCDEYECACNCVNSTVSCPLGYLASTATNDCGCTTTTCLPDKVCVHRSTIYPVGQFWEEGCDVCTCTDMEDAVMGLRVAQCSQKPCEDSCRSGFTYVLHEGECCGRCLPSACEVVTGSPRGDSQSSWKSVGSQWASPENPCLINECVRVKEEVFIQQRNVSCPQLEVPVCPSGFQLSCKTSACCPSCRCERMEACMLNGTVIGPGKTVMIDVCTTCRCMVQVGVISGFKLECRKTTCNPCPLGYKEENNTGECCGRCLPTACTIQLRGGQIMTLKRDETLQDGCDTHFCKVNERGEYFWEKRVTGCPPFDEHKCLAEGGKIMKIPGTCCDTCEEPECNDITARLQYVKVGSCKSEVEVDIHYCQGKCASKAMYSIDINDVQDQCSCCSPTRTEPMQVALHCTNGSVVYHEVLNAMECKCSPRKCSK
Experimental: ELISA plates (med-binding) were coated with 10 μg/mL vWF. Then, wells were blocked with 2% BSA-containing PBS-T and further incubated with 1 μg/mL each of VEGF-A, PlGF-2, or FGF-2 for 60 min at room temperature (RT) with 10 μM heparin. Next, the wells were incubated with biotinylated anti-VEGF-A, anti-PlGF, or anti-FGF-2 antibodies (R & D Systems). The antibodies were detected by streptavidin-HRP (R & D Systems). Color development and the absorbance measurement were done as described above.

NQEQVSPLRLVFALGTDGKKLRIKSKEKCNDGK [α2PI1-8-α33043-3067]
amount of VEGF-A165 remaining in the wounds [1]: significantly enhanced

laminin-332: recombinant human full-length laminin isoform -332 (BioLamina)
binding of laminin to CXCL-12a [2]: bound weakly
binding of laminin to CXCL-11 [3]: bound weakly

laminin-521: recombinant human full-length laminin isoform -521 (BioLamina)
Kd [4]: 0.0129 µM
Kd [5]: 0.0242 µM
Kd [6]: 0.0058 µM

heparin
inhibition of GF binding to laminin [7]: inhibited GF binding to laminin
inhibition of vWF binding to the GFs [8]: inhibited vWF binding to the GFs
